Series [1] has as its system HeLa Kyoto. The experiment in a line: melting temperature (median over replicates), in situ; higher = more thermally stable.
In series [2] the test system is HeLa Kyoto. The experiment in a line: thermal stability score vs G1/S (z-score of summed log2 fold changes over temperatures); higher = more thermally stable than in G1/S.
For series [3], the system named is HeLa Kyoto. The experiment in a line: solubility change mitosis vs G1/S (difference of NP-40 vs SDS log2 ratios) (log2 ratio difference); higher = more soluble in mitosis.
The test system of series [4] is HeLa Kyoto. The experiment in a line: solubility in G1/S (NP-40 vs SDS abundance) (log2 ratio); higher = more soluble. The conditions noted are these: cell cycle stage: G1/S.
The mark [5] stands for this setting: cell cycle stage: early G1 (4.5 h after nocodazole release).

This is an account of results in the supplement of paper PMC5998384.
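For melting temperature (median over replicates), in situ in this document: HeLa Kyoto cells synchronized by double thymidine or nocodazole block, proteins quantified by TMT10plex mass spectrometry, three independent biological replicates.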
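For solubility change mitosis vs G1/S (difference of NP-40 vs SDS log2 ratios) in this document: synchronized HeLa Kyoto cells (double thymidine block for G1/S, nocodazole release for mitosis), protein amounts in NP-40 versus SDS lysates quantified by mass spectrometry, three biological replicates.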
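For solubility in G1/S (NP-40 vs SDS abundance) in this document: HeLa Kyoto cells arrested at G1/S by double thymidine block, proteins quantified by TMT10plex mass spectrometry in mild NP-40 versus SDS extracts, three biological replicates.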
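For thermal stability score vs G1/S (z-score of summed log2 fold changes over temperatures) in this document: synchronized HeLa Kyoto cells, proteins quantified by TMT10plex mass spectrometry, three biological replicates, mitosis taken 0.5 h after nocodazole release, G1/S directly after double thymidine block.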

Turning to “MHRKKVDNRIRILIENGVAERQRSLFVVVGDRGKDQVVILHHMLSKATVKARPSVLWCYKKELGFSSHRKKRMRQLQKKIKNGTLNIKQDDPFELFIAATNIRYCYYNETHKILGNTFGMCVLQDFEALTPNLLARTVETVEGGGLVVILLRTMNSLKQLYTVTMDVHSRYRTEAHQDVVGRFNERFILSLASCKKCLVIDDQLNILPISSHVATMEALPPQTPDESLGPSDLELRELKESLQDTQPVGVLVDCCKTLDQAKAVLKFIEGISEKTLRSTVALTAARGRGKSAALGLAIAGAVAFGYSNIFVTSPSPDNLHTLFEFVFKGFDALQYQEHLDYEIIQSLNPEFNKAVIRVNVFREHRQTIQYIHPADAVKLGQAELVVIDEAAAIPLPLVKSLLGPYLVFMASTINGYEGTGRSLSLKLIQQLRQQSAQSQVSTTAENKTTTTARLASARTLYEVSLQESIRYAPGDAVEKWLNDLLCLDCLNITRIVSGCPLPEACELYYVNRDTLFCYHKASEVFLQRLMALYVASHYKNSPNDLQMLSDAPAHHLFCLLPPVPPTQNALPEVLAVIQVCLEGEISRQSILNSLSRGKKASGDLIPWTVSEQFQDPDFGGLSGGRVVRIAVHPDYQGMGYGSRALQLLQMYYEGRFPCLEEKVLETPQEIHTVSSEAVSLLEEVITPRKDLPPLLLKLNERPAERLDYLGVSYGLTPRLLKFWKRAGFVPVYLRQTPNDLTGEHSCIMLKTLTDEDEADQGGWLAAFWKDFRRRFLALLSYQFSTFSPSLALNIIQNRNMGKPAQPALSREELEALFLPYDLKRLEMYSRNMVDYHLIMDMIPAISRIYFLNQLGDLALSAAQSALLLGIGLQHKSVDQLEKEIELPSGQLMGLFNRIIRKVVKLFNEVQEKAIEEQMVAAKDVVMEPTMKTLSDDLDEAAKEFQEKHKKEVGKLKSMDLSEYIIRGDDEEWNEVLNKAGPNASIISLKSDKKRKLEAKQEPKQSKKLKNRETKNKKDMKLKRKK [NAT10]”, the melting temperature with HeLa Kyoto [1] (cell cycle stage: G1/S) was 49.8 °C; with HeLa Kyoto [1] (cell cycle stage: mitosis) it was 52.1 °C. Moreover, the thermal stability score in the series with HeLa Kyoto [2] (setting [5]) amounted to 1.83; in the series on HeLa Kyoto [2] (cell cycle stage: mitosis), 1.3. In the series with HeLa Kyoto [3], the “solubility change mitosis (log2)” value amounted to 0.692. The “solubility in G1/S (log2)” value in the series on HeLa Kyoto [4] is -2.26.
As to “MYPESTTGSPARLSLRQTGSPGMIYSTRYGSPKRQLQFYRNLGKSGLRVSCLGLGTWVTFGGQITDEMAEQLMTLAYDNGINLFDTAEVYAAGKAEVVLGNIIKKKGWRRSSLVITTKIFWGGKAETERGLSRKHIIEGLKASLERLQLEYVDVVFANRPDPNTPMEETVRAMTHVINQGMAMYWGTSRWSSMEIMEAYSVARQFNLTPPICEQAEYHMFQREKVEVQLPELFHKIGVGAMTWSPLACGIVSGKYDSGIPPYSRASLKGYQWLKDKILSEEGRRQQAKLKELQAIAERLGCTLPQLAIAWCLRNEGVSSVLLGASNADQLMENIGAIQVLPKLSSSIIHEIDSILGNKPYSKKDYRS [KCNAB2]”, the melting temperature with HeLa Kyoto [1] (cell cycle stage: G1/S) came out at 60.3 °C; in the series with HeLa Kyoto [1] (cell cycle stage: mitosis), 58.8 °C. For the same sequence, the thermal stability score is -0.252 in the series with HeLa Kyoto [2] (setting [5]) and 3.11 with HeLa Kyoto [2] (cell cycle stage: mitosis). For the same sequence, in the series with HeLa Kyoto [3], the “solubility change mitosis (log2)” value is -0.201. Further, the “solubility in G1/S (log2)” value in the series on HeLa Kyoto [4] stood at 0.117.
Consider “MSLADELLADLEEAAEEEEGGSYGEEEEEPAIEDVQEETQLDLSGDSVKTIAKLWDSKMFAEIMMKIEEYISKQAKASEVMGPVEAAPEYRVIVDANNLTVEIENELNIIHKFIRDKYSKRFPELESLVPNALDYIRTVKELGNSLDKCKNNENLQQILTNATIMVVSVTASTTQGQQLSEEELERLEEACDMALELNASKHRIYEYVESRMSFIAPNLSIIIGASTAAKIMGVAGGLTNLSKMPACNIMLLGAQRKTLSGFSSTSVLPHTGYIYHSDIVQSLPPDLRRKAARLVAAKCTLAARVDSFHESTEGKVGYELKDEIERKFDKWQEPPPVKQVKPLPAPLDGQRKKRGGRRYRKMKERLGLTEIRKQANRMSFGEIEEDAYQEDLGFSLGHLGKSGSGRVRQTQVNEATKARISKTLQRTLQKQSVVYGGKSTIRDRSSGTASSVAFTPLQGLEIVNPQAAEKKVAEANQKYFSSMAEFLKVKGEKSGLMST [PRPF31]”, for which the melting temperature is 46.8 °C with HeLa Kyoto [1] (cell cycle stage: G1/S) and 48.3 °C with HeLa Kyoto [1] (cell cycle stage: mitosis). For the same sequence, the thermal stability score in the series on HeLa Kyoto [2] (setting [5]) is 2.25; with HeLa Kyoto [2] (cell cycle stage: mitosis) it was 7.81. Further, the “solubility change mitosis (log2)” value in the series on HeLa Kyoto [3] was 0.246. The “solubility in G1/S (log2)” value with HeLa Kyoto [4] is -0.0726.
With “MAGAASPCANGCGPGAPSDAEVLHLCRSLEVGTVMTLFYSKKSQRPERKTFQVKLETRQITWSRGADKIEGAIDIREIKEIRPGKTSRDFDRYQEDPAFRPDQSHCFVILYGMEFRLKTLSLQATSEDEVNMWIKGLTWLMEDTLQAPTPLQIERWLRKQFYSVDRNREDRISAKDLKNMLSQVNYRVPNMRFLRERLTDLEQRSGDITYGQFAQLYRSLMYSAQKTMDLPFLEASTLRAGERPELCRVSLPEFQQFLLDYQGELWAVDRLQVQEFMLSFLRDPLREIEEPYFFLDEFVTFLFSKENSVWNSQLDAVCPDTMNNPLSHYWISSSHNTYLTGDQFSSESSLEAYARCLRMGCRCIELDCWDGPDGMPVIYHGHTLTTKIKFSDVLHTIKEHAFVASEYPVILSIEDHCSIAQQRNMAQYFKKVLGDTLLTKPVEISADGLPSPNQLKRKILIKHKKLAEGSAYEEVPTSMMYSENDISNSIKNGILYLEDPVNHEWYPHYFVLTSSKIYYSEETSSDQGNEDEEEPKEVSSSTELHSNEKWFHGKLGAGRDGRHIAERLLTEYCIETGAPDGSFLVRESETFVGDYTLSFWRNGKVQHCRIHSRQDAGTPKFFLTDNLVFDSLYDLITHYQQVPLRCNEFEMRLSEPVPQTNAHESKEWYHASLTRAQAEHMLMRVPRDGAFLVRKRNEPNSYAISFRAEGKIKHCRVQQEGQTVMLGNSEFDSLVDLISYYEKHPLYRKMKLRYPINEEALEKIGTAEPDYGALYEGRNPGFYVEANPMPTFKCAVKALFDYKAQREDELTFIKSAIIQNVEKQEGGWWRGDYGGKKQLWFPSNYVEEMVNPVALEPEREHLDENSPLGDLLRGVLDVPACQIAIRPEGKNNRLFVFSISMASVAHWSLDVAADSQEELQDWVKKIREVAQTADARLTEGKIMERRKKIALELSELVVYCRPVPFDEEKIGTERACYRDMSSFPETKAEKYVNKAKGKKFLQYNRLQLSRIYPKGQRLDSSNYDPLPMWICGSQLVALNFQTPDKPMQMNQALFMTGRHCGYVLQPSTMRDEAFDPFDKSSLRGLEPCAISIEVLGARHLPKNGRGIVCPFVEIEVAGAEYDSTKQKTEFVVDNGLNPVWPAKPFHFQISNPEFAFLRFVVYEEDMFSDQNFLAQATFPVKGLKTGYRAVPLKNNYSEDLELASLLIKIDIFPAKENGDLSPFSGTSLRERGSDASGQLFHGRAREGSFESRYQQPFEDFRISQEHLADHFDSRERRAPRRTRVNGDNRL [PLCG1]”, the melting temperature with HeLa Kyoto [1] (cell cycle stage: G1/S) and in the series with HeLa Kyoto [1] (cell cycle stage: mitosis) was 50.2 °C in each case. The figures for the thermal stability score with HeLa Kyoto [2] (setting [5]) and in the series with HeLa Kyoto [2] (cell cycle stage: mitosis) were -0.13 and -0.0513, respectively. In addition, the “solubility change mitosis (log2)” value with HeLa Kyoto [3] is -0.123. In addition, the “solubility in G1/S (log2)” value with HeLa Kyoto [4] is -0.111.
As for “MAHAPARCPSARGSGDGEMGKPRNVALITGITGQDGSYLAEFLLEKGYEVHGIVRRSSSFNTGRIEHLYKNPQAHIEGNMKLHYGDLTDSTCLVKIINEVKPTEIYNLGAQSHVKISFDLAEYTADVDGVGTLRLLDAVKTCGLINSVKFYQASTSELYGKVQEIPQKETTPFYPRSPYGAAKLYAYWIVVNFREAYNLFAVNGILFNHESPRRGANFVTRKISRSVAKIYLGQLECFSLGNLDAKRDWGHAKDYVEAMWLMLQNDEPEDFVIATGEVHSVREFVEKSFLHIGKTIVWEGKNENEVGRCKETGKVHVTVDLKYYRPTEVDFLQGDCTKAKQKLNWKPRVAFDELVREMVHADVELMRTNPNA [GMDS]”, the melting temperature in the series with HeLa Kyoto [1] (cell cycle stage: G1/S) was determined as 56.4 °C; with HeLa Kyoto [1] (cell cycle stage: mitosis), 57.4 °C. For the same sequence, the values for the thermal stability score with HeLa Kyoto [2] (setting [5]) and with HeLa Kyoto [2] (cell cycle stage: mitosis) were -0.0264 and -1.35, respectively. The “solubility change mitosis (log2)” value in the series on HeLa Kyoto [3] was -0.00656. Also, in the series with HeLa Kyoto [4], the “solubility in G1/S (log2)” value was -0.249.
Take “MAASGAVEPGPPGAAVAPSPAPAPPPAPDHLFRPISAEDEEQQPTEIESLCMNCYCNGMTRLLLTKIPFFREIIVSSFSCEHCGWNNTEIQSAGRIQDQGVRYTLSVRALEDMNREVVKTDSAATRIPELDFEIPAFSQKGALTTVEGLITRAISGLEQDQPARRANKDATAERIDEFIVKLKELKQVASPFTLIIDDPSGNSFVENPHAPQKDDALVITHYNRTRQQEEMLGLQEEAPAEKPEEEDLRNEVLQFSTNCPECNAPAQTNMKLVQIPHFKEVIIMATNCENCGHRTNEVKSGGAVEPLGTRITLHITDASDMTRDLLKSETCSVEIPELEFELGMAVLGGKFTTLEGLLKDIRELVTKNPFTLGDSSNPGQTERLQEFSQKMDQIIEGNMKAHFIMDDPAGNSYLQNVYAPEDDPEMKVERYKRTFDQNEELGLNDMKTEGYEAGLAPQR [ZPR1]”: the results for the melting temperature in the series with HeLa Kyoto [1] (cell cycle stage: G1/S) and in the series on HeLa Kyoto [1] (cell cycle stage: mitosis) were 52.6 °C and 52.5 °C, respectively. Also, the thermal stability score in the series with HeLa Kyoto [2] (setting [5]) is -0.562; in the series with HeLa Kyoto [2] (cell cycle stage: mitosis) it was -0.171. The “solubility change mitosis (log2)” value with HeLa Kyoto [3] is -0.0376. The “solubility in G1/S (log2)” value in the series with HeLa Kyoto [4] was 0.433.
